Values quoted from earlier work, collected in article PMC4718210.
Read-outs that look alike come from different tables or passages of the source. Blank lines part the entries; values can stand above or below the substance they belong to.

Tests used:
[1] = biological target: RXFP1 receptor (Homo sapiens) (UniProt Q9HBX9)
[2] = biological target: RXFP4 receptor (Homo sapiens) (UniProt Q8TDU9)
[3] = biological target: RXFP4 receptor (Homo sapiens) (UniProt Q8TDU9); remark: listed apart in the source
[4] = biological target: TRH1 receptor (Homo sapiens) (UniProt P34981)
[5] = biological target: RXFP2 receptor (Homo sapiens) (UniProt Q8WXD0)
Sequence of UniProt Q8WXD0 (Q8WXD0 whole entry): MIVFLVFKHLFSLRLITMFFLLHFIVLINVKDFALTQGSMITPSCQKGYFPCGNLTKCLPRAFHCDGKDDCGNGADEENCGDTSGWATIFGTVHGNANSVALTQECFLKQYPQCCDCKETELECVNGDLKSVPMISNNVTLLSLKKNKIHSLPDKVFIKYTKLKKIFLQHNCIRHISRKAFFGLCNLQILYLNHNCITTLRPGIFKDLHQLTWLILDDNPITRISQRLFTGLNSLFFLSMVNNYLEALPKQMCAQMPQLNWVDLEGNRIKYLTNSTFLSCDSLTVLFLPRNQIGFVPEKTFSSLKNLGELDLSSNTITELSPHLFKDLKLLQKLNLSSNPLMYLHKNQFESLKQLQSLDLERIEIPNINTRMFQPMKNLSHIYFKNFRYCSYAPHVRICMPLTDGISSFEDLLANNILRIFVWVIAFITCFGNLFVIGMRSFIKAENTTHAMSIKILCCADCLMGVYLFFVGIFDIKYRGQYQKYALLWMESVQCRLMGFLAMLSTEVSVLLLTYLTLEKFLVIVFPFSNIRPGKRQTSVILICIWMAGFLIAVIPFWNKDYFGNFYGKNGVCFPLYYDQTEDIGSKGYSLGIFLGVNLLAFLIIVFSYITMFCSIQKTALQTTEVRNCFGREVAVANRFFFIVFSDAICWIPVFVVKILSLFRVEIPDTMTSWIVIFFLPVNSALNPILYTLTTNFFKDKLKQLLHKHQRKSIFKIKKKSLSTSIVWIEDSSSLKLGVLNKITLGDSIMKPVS

Sequence of UniProt Q8TDU9 (Q8TDU9 whole entry): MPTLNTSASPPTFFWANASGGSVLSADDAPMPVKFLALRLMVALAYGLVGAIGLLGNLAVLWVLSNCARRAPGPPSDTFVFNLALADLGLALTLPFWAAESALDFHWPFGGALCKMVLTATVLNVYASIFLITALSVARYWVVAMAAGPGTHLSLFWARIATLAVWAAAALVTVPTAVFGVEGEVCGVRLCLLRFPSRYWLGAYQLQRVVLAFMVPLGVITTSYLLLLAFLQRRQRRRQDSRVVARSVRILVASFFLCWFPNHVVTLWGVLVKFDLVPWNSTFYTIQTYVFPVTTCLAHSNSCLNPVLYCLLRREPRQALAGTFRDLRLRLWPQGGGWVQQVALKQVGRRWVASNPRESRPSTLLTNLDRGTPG
Sequence of UniProt P34981 (P34981 whole entry): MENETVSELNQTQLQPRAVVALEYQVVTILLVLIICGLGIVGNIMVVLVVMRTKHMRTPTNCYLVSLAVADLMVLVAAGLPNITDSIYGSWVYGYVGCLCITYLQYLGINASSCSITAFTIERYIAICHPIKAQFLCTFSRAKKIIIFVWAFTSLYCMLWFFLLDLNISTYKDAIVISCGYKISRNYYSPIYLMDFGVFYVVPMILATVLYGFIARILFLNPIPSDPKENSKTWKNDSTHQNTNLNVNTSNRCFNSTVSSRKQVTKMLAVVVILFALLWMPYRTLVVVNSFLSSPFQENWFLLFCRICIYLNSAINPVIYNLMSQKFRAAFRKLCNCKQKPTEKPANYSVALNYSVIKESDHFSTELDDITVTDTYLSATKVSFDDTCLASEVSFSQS
Sequence of UniProt Q9HBX9 (Q9HBX9 whole entry): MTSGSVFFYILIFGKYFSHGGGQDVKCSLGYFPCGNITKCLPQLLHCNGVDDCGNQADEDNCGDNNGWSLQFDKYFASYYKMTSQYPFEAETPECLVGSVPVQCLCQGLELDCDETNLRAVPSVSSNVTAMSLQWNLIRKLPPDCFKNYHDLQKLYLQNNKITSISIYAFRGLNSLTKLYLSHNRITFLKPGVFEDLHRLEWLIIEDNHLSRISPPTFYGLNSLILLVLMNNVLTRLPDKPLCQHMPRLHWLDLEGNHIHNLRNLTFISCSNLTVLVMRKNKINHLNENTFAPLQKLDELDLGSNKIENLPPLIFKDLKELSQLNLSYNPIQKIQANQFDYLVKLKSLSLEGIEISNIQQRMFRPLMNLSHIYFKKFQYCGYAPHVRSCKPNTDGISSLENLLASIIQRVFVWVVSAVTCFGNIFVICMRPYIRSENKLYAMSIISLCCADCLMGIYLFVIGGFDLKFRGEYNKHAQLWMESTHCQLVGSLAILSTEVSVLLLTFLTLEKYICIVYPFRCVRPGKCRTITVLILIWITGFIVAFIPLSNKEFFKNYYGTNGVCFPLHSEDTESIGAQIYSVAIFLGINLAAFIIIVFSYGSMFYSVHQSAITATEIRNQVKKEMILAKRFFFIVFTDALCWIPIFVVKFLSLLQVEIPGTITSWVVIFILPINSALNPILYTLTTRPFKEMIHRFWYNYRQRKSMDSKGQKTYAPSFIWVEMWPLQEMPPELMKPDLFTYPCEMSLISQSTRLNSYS

Kd [4]: 13 nM
Substance: TRH (from UniProt P20396)

Kd [5]: 1 nM
Substance: INSL3 (from UniProt P51460)

Further lines, the substance ahead of its results:

Substance: relaxin (from UniProt P04090)
Kd [1]: 0.5 nM

Substance: INSL5 (from UniProt Q9WUG6)
Kd [2]: 5 nM

Substance: INSL5 (from UniProt Q9Y5Q6)
Kd [3]: 5.01 nM
